From paper PMC7040040 (Scientific Reports, 2020)

Columns and labels:
Conditions in all cases: both partners purified
Aβ(3–40) monomer = target: T1, Aβ(3–40) monomer (Homo sapiens, UniProt P05067); experiment: SPR; Biacore 3000; antibody captured on a CM5 chip via immobilised anti-mouse or anti-human antibody; monomeric Aβ peptides injected (240 µl, 30 µl/min), running buffer HBS-EP; 1:1 Langmuir binding model
T1 construct: amyloid beta peptide, residues 3-40, N-terminal glutamate not cyclised

Aβ(1–40) monomer = target: T2, Aβ(1–40) monomer (Homo sapiens, UniProt P05067); experiment: as above
T2 construct: amyloid beta peptide, residues 1-40

[1] = target: T3, oligomers (AADL) of 100% Aβ(1–42) (Homo sapiens, UniProt P05067); experiment: SPR; Biacore 3000; Aβ oligomers or fibrils captured with pE3-Aβ-specific antibodies (pure pE3-Aβ aggregates) or an N-terminal non-pE3-Aβ-specific antibody (Aβ(1–42) aggregates and mixtures); PBD-C06 antibody injected; Single Cycle Kinetics model; bivalent binding
T3 construct: amyloid beta peptide, residues 1-42; also called Mixed Oligomers (AADL) 0: 100; oligomers consisting of 100% Aβ(1–42); source: 2500 µM Aβ(1–42) added to Ham's F-12 medium, 18 hours at 4 °C, supernatant after centrifugation

fibrils of 100% Aβ(1–42) = target: T4, fibrils of 100% Aβ(1–42) (Homo sapiens, UniProt P05067); experiment: as above
T4 construct: amyloid beta peptide, residues 1-42; also called Mixed Fibrils 0: 100; source: 350 µM Aβ(1–42), diluted to 50 µM, fibrillated 7 days at 37 °C, pH 8.7

B1: murine PBD-C06 precursor antibody (antibody, V domains shown)
VH: EVQLQQSGPELVKPGASMKISCKASGYSFTGYTMNWVKQSHGKNLEWIGLINPYNGVTRYNQKFKGKATLIVDKSSSTAYMELLSLTSEDSAVYYCTREAKREWDETYWGQGTLVTVSA
VL: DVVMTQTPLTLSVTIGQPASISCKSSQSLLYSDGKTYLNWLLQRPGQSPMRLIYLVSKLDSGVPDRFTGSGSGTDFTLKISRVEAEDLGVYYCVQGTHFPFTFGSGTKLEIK
notes: murine hybridoma precursor VH; murine heavy chain constant region; murine hybridoma precursor VL; murine light chain constant region, not described; Whole antibody; also called murine precursor antibody
- Kd (Aβ(3–40) monomer): 796 nM
- koff (Aβ(3–40) monomer): 0.0025 s⁻¹
- kon (Aβ(3–40) monomer): 3200 M⁻¹ s⁻¹
- Kd (Aβ(1–40) monomer): 6.31 µM
- koff (Aβ(1–40) monomer): 0.0025 s⁻¹
- kon (Aβ(1–40) monomer): 390 M⁻¹ s⁻¹
- Kd [1]: 2.02 nM
- Kd (fibrils of 100% Aβ(1–42)): 1.81 nM
